Assay results as given in PMC4662715.

Molecular target: CCR1-rHDL (human C-C chemokine receptor 1 with C-terminal 1D4 tag, in reconstituted high density lipoprotein) (human) (UniProt P32246)
Assay: SPR; CCR1-rHDL captured via immobilised 1D4 antibody on a CM5 chip (~3000 RU); MIP-1α variant flowed at 0.13-5.0 μM; 25 °C; 20 mM HEPES, pH 7.2, 100 mM NaCl; empty-rHDL on the control flow cell; steady-state fit

Sequence of UniProt P32246 (P32246 whole entry): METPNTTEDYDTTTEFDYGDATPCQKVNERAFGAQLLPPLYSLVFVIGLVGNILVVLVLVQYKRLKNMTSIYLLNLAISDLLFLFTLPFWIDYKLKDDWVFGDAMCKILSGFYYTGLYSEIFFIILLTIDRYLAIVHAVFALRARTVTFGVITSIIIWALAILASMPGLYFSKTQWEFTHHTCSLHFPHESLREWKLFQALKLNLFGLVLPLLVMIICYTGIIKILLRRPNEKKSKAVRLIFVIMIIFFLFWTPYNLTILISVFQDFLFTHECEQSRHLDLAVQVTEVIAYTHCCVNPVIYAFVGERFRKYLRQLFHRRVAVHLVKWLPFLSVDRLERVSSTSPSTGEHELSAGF

For MIP-1α variant (P8A/F13Y/E67Q) (ligand), the Kd was 2000 nM.
